Test results from patent publication US8273705B2, “Conversion of apoptotic proteins” (The Burnham Institute, priority 2002, dated 2012).

Key:
293T cells [1] = test: DAPI apoptosis assay in 293T cells; assay type: cell-based, human
Procedure: Apoptosis assays—For nuclear morphological change analysis, cells were trypsinized, washed with PBS, fixed with 3.7% paraformaldehyde, and stained with DAPI (4,6-diamidino-2-phenylindole) (50 μg/ml) to visualize the nuclei by UV-microscopy. The percentages of apoptotic cells were determined by counting 300 GFP-positive cells, scoring cells having nuclear fragmentation and/or chromatin condensation.
DAPI staining was used to study the apoptotic effect of TR3/Bcl-2 interaction. 293T cells were transfected with GFP-TR3/ΔDBD alone or together with Bcl-2. After 36 h, nuclei were stained by DAPI and nuclear fragmentation and chromatin condensation were identified. Cells were also stained with anti-Bcl-2 antibody, followed by TRITC-conjugated secondary antibody (Sigma). Bcl-2 and GFP-ΔDBD expression and nuclear morphology were visualized by fluorescence microscopy, and the two images were overlaid. […] But, when Bcl-2 was cotransfected, a significant amount of transfected cells underwent apoptosis. For example, approximately 4% of cells transfected with either TR3/ΔDBD or Bcl-2 were apoptotic, compared to 35% of cell transfected with both. […] Cotransfection of Bcl-2, however, prevented BAX-induced apoptosis in these cells (see FIG. 4). The effect of Bcl-2 on apoptotic potential of TR3/ΔDBD in lung cancer and breast cancer cells was also investigated.
To characterize the pro-apoptotic mechanism of Bcl-2 in the setting of TR3-induced apoptosis, various TR3 mutants and Bcl-2 mutants were co-expressed in HEK293T cells. TR3 mutants were transfected into 293T cells together with or without Bcl-2 expression vector or with Bcl-2 mutants. After 36 h, nuclei were stained by DAPI. Cells displaying nuclear condensation or fragmentation were scored.
The role of various Bcl-2 mutants in mediating apoptosis induction by TR3 was next studied. […] The hydrophobic cleft of Bcl-2 is involved in its anti-apoptotic effect through its interaction with BH3 domain of pro-apoptotic molecules (Reed 1997 Semin Hematol 34:9-19; Reed 1997 Nature 387:773-776). To investigate whether the BH3 domain-binding motif of Bcl-2 is also involved in its apoptotic effect, various Bcl-2 mutants including Y108K Bcl-2, with a mutation in the BH3 domain-binding cleft, L137A, and G145A (all with impaired interaction with bax), were cotransfected together with TR3/ΔDBD. […] Bcl-2 mutations (Y108K, L137A, G145A) that impaired its interaction with Bax, abolished the Bcl-2 inhibitory effect on Bax-induced apoptosis, consistent with previous observations that the hydrophobic cleft of Bcl-2 is essential for its anti-apoptotic effect. […] Thus, an intact BH3 domain-binding motif in Bcl-2 is involved in its pro-apoptotic effect. In contrast to the inhibitory effect of Bcl-2 on Bax-induced apoptosis TR3/ΔDBD-induced apoptosis was augmented by co-expression of Bcl-2 in HEK293T cells.
Mitochondrial targeting of TR3 has been previously identified as being involved in its apoptotic effect. To study whether mitochondrial localization of the TR3/ΔDBD/Bcl-2 complex was involved in their apoptotic effect, TR3/ΔDBD was cotransfected with Bcl-2/ATM, a Bcl-2 lacking its transmembrane domain. […] Thus, mitochondrial localization of TR3/ΔDBD/Bcl-2 complex is involved in this apoptotic effect.

293T cells [2] = test: Confocal microscopy of mitochondrial targeting in 293T cells; assay type: cell-based, human
Procedure: (§1) Subcellular localization assays—Cells were seeded onto cover-slips in 6-well plates overnight, then transiently transfected with GFP-fusion expression plasmids. After 16 hours, cells were washed with PBS and fixed in 4% paraformaldehyde. For mitochondrial staining, cells were then incubated with anti-Hsp60 goat IgG (Santa Cruz, USA), followed by anti-goat IgG conjugated with Cy3 (Sigma). For cyt c staining, cells were incubated with monoclonal anti-cyt c IgG (PharMingen), followed by anti-mouse IgG conjugated with Cy5 (Amersham). Fluorescent images were collected and analyzed using a MRC-1024 MP laser-scanning confocal microscope (Bio-Rad). Subcellular fractionation assays were performed as described (Li, et al. 2000 Science 289:1159-1164). Briefly, cells (1×10^7 cells) suspended in 0.5 ml hypotonic buffer (5 mM Tris-HCl, pH 7.4, 5 mM KCl, 1.5 mM MgCl2, 0.1 mM EGTA, pH 8.0, and 1 mM DTT) were homogenized and cell extracts were centrifuged at 500×g for 5 min. The resulting supernatant was centrifuged at 10,000×g for 30 min at 4° C. to obtain the HM fraction. HM fraction was resuspended in 100 μl lysis buffer (10 mM Tris, pH 7.4, 150 mM NaCl, 1% Triton X-100, 5 mM EDTA, pH 8.0) for immunoblotting analysis.
A. confocal microscopy—First an experiment was performed to determine whether the deletion mutant TR3/ΔDBD targets mitochondria via its interaction with Bcl-2. In confocal microscopy analysis, GFP-TR3/ΔDBD and Bcl-2 were transfected into 293T cells alone or together. […] Bcl-2, TR3/ΔDBD and mitochondria (Hsp60) were visualized using confocal microscopy and the three images were overlaid.

HEK293T cells = test: Subcellular fractionation, heavy membrane (HM) fractions of HEK293T cells; assay type: cell-based, human
Procedure: as §1, with “analysis. […]” for “analysis.”

ZR-75-1 cells = test: GFP-TR3/ΔDBD localization and cytochrome c release in ZR-75-1 cells; assay type: cell-based; conditions: ZR-75-1, absence of any treatment
Procedure: as §1, with “The resulting supernatant was centrifuged at 10,000×g for 30 min at 4° C. to obtain the HM fraction. HM fraction was resuspended in 100 μl lysis buffer (10 mM Tris, pH 7.4, 150 mM NaCl, 1% Triton X-100, 5 mM EDTA, pH 8.0) for immunoblotting analysis.” left out
To study whether the TR3 nuclear-to-mitochondrial targeting pathway also occurs in breast cancer cells, a GFP-TR3 fusion construct was transfected into MDA-MB-231 cells. […] Next, GFP-TR3/ΔDBD was transiently transfected into ZR-75-1 or MDA-MB-231 cells, stained for mitochondria (Hsp60) and cytochrome c (Cyt c), and analyzed by confocal microscopy.

[3] = system: peripheral blood lymphocytes (PBLs); test: TR3 subcellular localization in peripheral blood lymphocytes; assay type: cell-based, human; conditions: DsRed2-Mito
From the text: TR3 subcellular localization was studied by both confocal microscopy and subcellular fractionation approaches. For microscopy experiments, freshly isolated PBLs were transfected with GFP-TR3, then treated with phorbol ester TPA and the calcium ionophore ionomycin, which induce TR3-dependent apoptosis of T-lymphocytes.

[4] = 293T, co-expressed with Bcl-2, 36 h, DAPI

B1: TR3/ΔDBD/Δ471-488: TR3/ΔDBD with eighteen amino acids from 471 to 488 in the DC1 region deleted (protein)
chain: MPCIQAQYGTPAPSPGPRDHLASDPLTPEFIKPTMDLASPEAAPAAPTALPSFSTFMDGYTGEFDTFLYQLPGTVQPCSSASSSASSTSSSSATSPASASFKFEDFQVYGCYPGPLSGPVDEALSSSGSDYYGSPCSAPSPSTPSFQPPQLSPWDGSFGHFSPSQTYLVLFSRSLHSLLVDVPAFACLSALVLITDRHGLQEPRRVEELQNRIASCLKEHVAAVAGEPQPASCLSRLLGKLPELRTLCTQGLQRIFYLKLEDLVPPPPIIDKIFMDTLPF
modifications: left off: large carriers; small tags and cut ends
notes: TR3/ΔDBD with eighteen amino acids from 471 to 488 in the DC1 region deleted
- apoptosis (293T cells [1]; [4]): failed to confer the apoptotic potential of Bcl-2
- colocalization with mitochondria (293T cells [2]): failed to colocalize with mitochondria
- accumulation in HM fraction (HEK293T cells; either in the absence or presence of Bcl-2): not found in the HM fraction

B2: TR3/ΔDBD: TR3 mutant with the DNA binding domain removed; used as GFP fusion (protein)
chain: MPCIQAQYGTPAPSPGPRDHLASDPLTPEFIKPTMDLASPEAAPAAPTALPSFSTFMDGYTGEFDTFLYQLPGTVQPCSSASSSASSTSSSSATSPASASFKFEDFQVYGCYPGPLSGPVDEALSSSGSDYYGSPCSAPSPSTPSFQPPQLSPWDGSFGHFSPSQTYLVLHRLQCARGFGDWIDSILAFSRSLHSLLVDVPAFACLSALVLITDRHGLQEPRRVEELQNRIASCLKEHVAAVAGEPQPASCLSRLLGKLPELRTLCTQGLQRIFYLKLEDLVPPPPIIDKIFMDTLPF
modifications: left off: large carriers; small tags and cut ends
notes: used as GFP fusion
- apoptosis (293T cells [1]; [4]): augmented
- apoptosis (293T cells [1]; 293T, coexpression with Bcl-2/ΔTM): did not result in apoptosis
- apoptosis (293T cells [1]; 293T, cotransfected with Bcl-2 Y108K): unable to induce apoptosis
- apoptotic cells (293T cells [1]; 293T, transfected alone, 36 h, DAPI): approximately 4%
- apoptotic cells (293T cells [1]; 293T, transfected with both TR3/ΔDBD and Bcl-2, 36 h, DAPI): 35%
- apoptosis (293T cells [1]; HEK293T, co-expression with Bcl-2/ΔLoop): did not induce cell death
- apoptosis (293T cells [1]; co-expressed with Bcl-2 L137A and G145A): retained the ability to promote apoptosis
- apoptosis (293T cells [1]; co-expressed with Bcl-2 mutants lacking TM, BH1, BH2 or BH3 domain): incapable of inducing apoptosis
- subcellular distribution (293T cells [2]; coexpressed with Bcl-2): distribution pattern overlaid extensively with that of Hsp60
- subcellular distribution (293T cells [2]; expressed alone): diffuse distribution pattern
- accumulation in HM fraction (HEK293T cells; presence of Bcl-2): accumulated in the HM fraction
- GFP-TR3/ΔDBD subcellular localization (ZR-75-1 cells): targeted to mitochondria
- cytochrome c release (ZR-75-1 cells): caused release of cytochrome c from the mitochondria
- mitochondrial colocalization [3]: colocalized extensively with DsRed2-Mito
